Assay results reported in patent US20210253724A1.

These binders were tested against human CEACAM5 (CEA) on cells (human) (UniProt P06731) (assay: flow cytometry on MKN45 cells).
Set-up: unit not given beside the values

human CEACAM5 (CEA) on cells (human), sequence (P06731 35-685 E398K limits assumed): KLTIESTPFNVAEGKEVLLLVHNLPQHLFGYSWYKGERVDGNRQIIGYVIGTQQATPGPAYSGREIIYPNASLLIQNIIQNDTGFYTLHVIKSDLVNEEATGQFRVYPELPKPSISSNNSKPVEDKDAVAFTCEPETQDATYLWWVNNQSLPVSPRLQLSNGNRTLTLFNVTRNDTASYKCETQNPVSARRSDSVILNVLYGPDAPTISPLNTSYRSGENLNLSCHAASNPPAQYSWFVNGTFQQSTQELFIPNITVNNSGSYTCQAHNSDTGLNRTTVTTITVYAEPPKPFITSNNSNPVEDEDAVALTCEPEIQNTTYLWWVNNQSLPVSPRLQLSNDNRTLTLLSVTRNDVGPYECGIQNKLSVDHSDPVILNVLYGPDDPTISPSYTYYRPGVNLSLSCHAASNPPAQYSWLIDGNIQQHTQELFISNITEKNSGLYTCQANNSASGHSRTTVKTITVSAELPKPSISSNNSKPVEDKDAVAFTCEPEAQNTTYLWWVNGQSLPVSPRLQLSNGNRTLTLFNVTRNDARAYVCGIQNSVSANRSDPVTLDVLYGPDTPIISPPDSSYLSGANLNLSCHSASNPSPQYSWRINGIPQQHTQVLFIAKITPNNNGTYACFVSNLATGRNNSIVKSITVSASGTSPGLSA

Row | Binder | AUC
1 | P1AE3108 (antibody, IgG1, V domains shown) VH: QVQLVQSGAEVKKPGSSVKVSCKASGFNIKDSYMHWVRQAPGQGLEWMGWIDPENGDTEYAPKFQGRVTITTDESTSTAYMELSSLRSEDTAVYYCNEGTPTGPYYFDYWGQGTLVTVSS VL: EIQMTQSPSSLSASVGDRVTITCRASQSISSYMHWYQQKPGKAPKLLIYSTSNLASGVPSRFSGSGSGTDFTLTISSLQPEDFATYYCQQRSSYPLTFGGGTKLEIK | 2090

Each binder was assayed against hu N(A2-B2)A-avi-His B (human) (assay: SPR (Biacore T200), CEA construct immobilised, Fab as analyte, 1:1 Langmuir fit).
hu N(A2-B2)A-avi-His B (human), sequence (P06731 whole entry): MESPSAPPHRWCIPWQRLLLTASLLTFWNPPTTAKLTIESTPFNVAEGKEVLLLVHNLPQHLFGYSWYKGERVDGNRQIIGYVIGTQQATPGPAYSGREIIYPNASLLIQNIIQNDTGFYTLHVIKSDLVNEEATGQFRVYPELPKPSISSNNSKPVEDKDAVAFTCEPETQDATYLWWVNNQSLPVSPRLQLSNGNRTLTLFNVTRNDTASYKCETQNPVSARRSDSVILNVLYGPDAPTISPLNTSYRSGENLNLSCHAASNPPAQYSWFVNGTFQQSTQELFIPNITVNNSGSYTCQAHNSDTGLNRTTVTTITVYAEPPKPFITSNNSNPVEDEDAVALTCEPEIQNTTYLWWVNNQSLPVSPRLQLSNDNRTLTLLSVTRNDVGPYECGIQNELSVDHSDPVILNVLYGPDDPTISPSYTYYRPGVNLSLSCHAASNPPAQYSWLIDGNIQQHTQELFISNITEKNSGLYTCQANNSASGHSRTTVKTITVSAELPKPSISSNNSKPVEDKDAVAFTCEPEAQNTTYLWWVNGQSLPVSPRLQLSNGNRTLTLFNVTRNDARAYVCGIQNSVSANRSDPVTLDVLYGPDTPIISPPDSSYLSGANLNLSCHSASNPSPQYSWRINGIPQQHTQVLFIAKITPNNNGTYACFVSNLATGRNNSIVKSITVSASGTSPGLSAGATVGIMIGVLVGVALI

Row | Binder | Kd
2 | P1AE0289 CEA (A5B7) Fab (parental murine antibody) (Fab, V domains shown) VH: EVKLVESGGGLVQPGGSLRLSCATSGFTFTDYYMNWVRQPPGKALEWLGFIGNKANGYTTEYSASVKGRFTISRDKSQSILYLQMNTLRAEDSATYYCTRDRGLRFYFDYWGQGTTLTVSS VL: QTVLSQSPAILSASPGEKVTMTCRASSSVTYIHWYQQKPGSSPKSWIYATSNLASGVPARFSGSGSGTSYSLTISRVEAEDAATYYCQHWSSKPPTFGGGTKLEIK | 0.559 nM
3 | P1AE4135 Fab derived from P1AE2164 (Fab, V domains shown) VH: EVQLLESGGGLVQPGGSLRLSCAASGFTFTDYYMNWVRQAPGKGLEWLGFIGNKANGYTTEYSASVKGRFTISRDKSKNTLYLQMNSLRAEDTATYYCTRDRGLRFYFDYWGQGTTVTVSS VL: QTVLTQSPATLSLSPGERATLSCRASSSVTYIHWYQQKPGSSPKSWIYATSNLASGIPARFSGSGSGTDYTLTISSLEPEDFAVYYCQHWSSKPPTFGQGTKLEIK | 1.7 nM
4 | P1AE4136 Fab derived from P1AE2165 (Fab, V domains shown) VH: EVQLLESGGGLVQPGGSLRLSCAASGFTFTDYYMNWVRQAPGKGLEWLGFIGNKANGYTTEYSASVKGRFTISRDKSKNTLYLQMNSLRAEDTATYYCTRDRGLRFYFDYWGQGTTVTVSS VL: QTVLTQSPATLSLSPGERATLSCRASSSVTYIHWYQQKPGQAPRLLIYATSNLASGIPARFSGSGSGTDFTLTISSLEPEDFAVYYCQHWSSKPPTFGQGTKLEIK | 1.25 nM
5 | P1AE4137 Fab derived from P1AE2166 (Fab, V domains shown) VH: EVQLLESGGGLVQPGGSLRLSCAASGFTFTDYYMNWVRQAPGKGLEWLGFIGNKANGYTTEYSASVKGRFTISRDKSKNTLYLQMNSLRAEDTATYYCTRDRGLRFYFDYWGQGTTVTVSS VL: EIVLTQSPATLSLSPGERATLSCRASSSVTYIHWYQQKPGSSPKSWIYATSNLASGIPARFSGSGSGTDFTLTISSLEPEDFAVYYCQHWSSKPPTFGQGTKLEIK | 11.3 nM
6 | P1AE4138 Fab derived from P1AE2167 (Fab, V domains shown) VH: EVQLLESGGGLVQPGGSLRLSCAASGFTFTDYYMNWVRQAPGKGLEWLGFIGNKANGYTTEYSASVKGRFTISRDKSKNTLYLQMNSLRAEDTATYYCTRDRGLRFYFDYWGQGTTVTVSS VL: EIVLTQSPATLSLSPGERATLSCRASSSVTYIHWYQQKPGQAPRSWIYATSNLASGIPARFSGSGSGTDFTLTISSLEPEDFAVYYCQHWSSKPPTFGQGTKLEIK | 1.47 nM
7 | P1AE4139 Fab derived from P1AE2176 (Fab, V domains shown) VH: EVQLLESGGGLVQPGGSLRLSCAASGFTFTDYYMNWVRQAPGKGLEWVGFIGNKANGYTTEYSASVKGRFTISRDNSKNTLYLQMNSLRAEDTAVYYCTRDRGLRFYFDYWGQGTTVTVSS VL: EIVLTQSPATLSLSPGERATLSCRASSSVTYIHWYQQKPGSSPKSWIYATSNLASGIPARFSGSGSGTDFTLTISSLEPEDFAVYYCQHWSSKPPTFGQGTKLEIK | 7.58 nM
8 | P1AE4140 Fab derived from P1AE2177 (Fab, V domains shown) VH: EVQLLESGGGLVQPGGSLRLSCAASGFTFTDYYMNWVRQAPGKGLEWVGFIGNKANGYTTEYSASVKGRFTISRDNSKNTLYLQMNSLRAEDTAVYYCTRDRGLRFYFDYWGQGTTVTVSS VL: EIVLTQSPATLSLSPGERATLSCRASSSVTYIHWYQQKPGQAPRSWIYATSNLASGIPARFSGSGSGTDFTLTISSLEPEDFAVYYCQHWSSKPPTFGQGTKLEIK | 7.62 nM
9 | P1AE4141 Fab derived from P1AE2179 (Fab, V domains shown) VH: EVQLLESGGGLVQPGGSLRLSCAASGFTFTDYYMNWVRQAPGKGLEWVGFIGNKANGYTTEYSASVKGRFTISRDKSKNTLYLQMNSLRAEDTAVYYCARDRGLRFYFDYWGQGTTVTVSS VL: QTVLTQSPATLSLSPGERATLSCRASSSVTYIHWYQQKPGSSPKSWIYATSNLASGIPARFSGSGSGTDYTLTISSLEPEDFAVYYCQHWSSKPPTFGQGTKLEIK | 1.83 nM
10 | P1AE4142 Fab derived from P1AE2181 (Fab, V domains shown) VH: EVQLLESGGGLVQPGGSLRLSCAASGFTFTDYYMNWVRQAPGKGLEWVGFIGNKANGYTTEYSASVKGRFTISRDKSKNTLYLQMNSLRAEDTAVYYCARDRGLRFYFDYWGQGTTVTVSS VL: EIVLTQSPATLSLSPGERATLSCRASSSVTYIHWYQQKPGSSPKSWIYATSNLASGIPARFSGSGSGTDFTLTISSLEPEDFAVYYCQHWSSKPPTFGQGTKLEIK | 2.64 nM
11 | P1AE4143 Fab derived from P1AE2182 (Fab, V domains shown) VH: EVQLLESGGGLVQPGGSLRLSCAASGFTFTDYYMNWVRQAPGKGLEWVGFIGNKANGYTTEYSASVKGRFTISRDKSKNTLYLQMNSLRAEDTAVYYCARDRGLRFYFDYWGQGTTVTVSS VL: EIVLTQSPATLSLSPGERATLSCRASSSVTYIHWYQQKPGQAPRSWIYATSNLASGIPARFSGSGSGTDFTLTISSLEPEDFAVYYCQHWSSKPPTFGQGTKLEIK | 2.92 nM
